Results published in the supplement of paper PMC9112550, “Optimization of the antimicrobial peptide Bac7 by deep mutational scanning” (BMC Biology, 2022).

System: Escherichia coli TOP10
Test: shrunken log2 fold change of peptide-encoding DNA abundance (4.5 h post-induction vs induction); higher = less antimicrobial activity (less host growth inhibition)
Conditions: time post-induction: 4.5 h; library: site-saturation at positions 5, 18, 19, 20
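Also: peptides expressed intracellularly from a pBAD plasmid library in pooled LB shake-flask culture, induced with 0.3% L-arabinose, DNA abundance read by NGS, three biological replicates, DESeq2 with apeglm shrinkage.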

Row | Sequence | shrunken log2 fold change
1 | RRIRIRPPRLPRPRPRPPYTPRP | -0.822
2 | RRIRCRPPRLPRPRPRPPGCPRP | 0.412
3 | RRIRWRPPRLPRPRPRPLPHPRP | 0.188
4 | RRIRNRPPRLPRPRPRPWKFPRP | -0.0447
5 | RRIRQRPPRLPRPRPRPHTMPRP | -0.9
6 | RRIRMRPPRLPRPRPRPQIFPRP | -0.0615
7 | RRIRVRPPRLPRPRPRPGRQPRP | 0.0976
8 | RRIRFRPPRLPRPRPRPAPIPRP | 0.108
9 | RRIRSRPPRLPRPRPRPVSNPRP | -0.0276
10 | RRIRERPPRLPRPRPRPKRMPRP | -0.0497
11 | RRIRGRPPRLPRPRPRPKWYPRP | 0.806
12 | RRIRKRPPRLPRPRPRPKPQPRP | 0.927
13 | RRIRMRPPRLPRPRPRPFLFPRP | 0.0343
14 | RRIRMRPPRLPRPRPRPSPTPRP | 1.15
15 | RRIRRRPPRLPRPRPRPWLIPRP | -0.319
16 | RRIRPRPPRLPRPRPRPIREPRP | 0.31
17 | RRIRQRPPRLPRPRPRPDWPPRP | 0.416
18 | RRIRCRPPRLPRPRPRPQYPPRP | -0.329
19 | RRIRKRPPRLPRPRPRPMRYPRP | 0.239
20 | RRIRPRPPRLPRPRPRPTHNPRP | 0.199
21 | RRIRQRPPRLPRPRPRPCPLPRP | -0.0641
22 | RRIRHRPPRLPRPRPRPGNRPRP | 0.013
23 | RRIRFRPPRLPRPRPRPFFLPRP | -0.32
24 | RRIRSRPPRLPRPRPRPLKGPRP | 0.0623
25 | RRIRARPPRLPRPRPRPHPLPRP | -0.0796

Row | Sequence | shrunken log2 fold change
26 | RRIRLRPPRLPRPRPRPTLFPRP | 0.0945
27 | RRIRMRPPRLPRPRPRPAQPPRP | 0.586
28 | RRIRRRPPRLPRPRPRPACPPRP | 0.353
29 | RRIRTRPPRLPRPRPRPTSKPRP | -0.343
30 | RRIRFRPPRLPRPRPRPESWPRP | 0.53
31 | RRIRTRPPRLPRPRPRPIVPPRP | -0.229
32 | RRIRYRPPRLPRPRPRPRRIPRP | 0.014
33 | RRIRMRPPRLPRPRPRPVGAPRP | 1.34
34 | RRIRSRPPRLPRPRPRPDNAPRP | -0.201
35 | RRIRIRPPRLPRPRPRPLYMPRP | -0.918
36 | RRIRVRPPRLPRPRPRPECLPRP | 0.0466
37 | RRIRWRPPRLPRPRPRPMPPPRP | 0.411
38 | RRIRARPPRLPRPRPRPCWSPRP | -0.142
39 | RRIRPRPPRLPRPRPRPSHYPRP | -0.479
40 | RRIRARPPRLPRPRPRPIKMPRP | 0.0129
41 | RRIRARPPRLPRPRPRPIHEPRP | -0.0242
42 | RRIRIRPPRLPRPRPRPHYPPRP | -0.32
43 | RRIRVRPPRLPRPRPRPINRPRP | -0.239
44 | RRIRFRPPRLPRPRPRPKWWPRP | -0.0582
45 | RRIRWRPPRLPRPRPRPWDIPRP | -0.309
46 | RRIRSRPPRLPRPRPRPGRKPRP | 0.133
47 | RRIRRRPPRLPRPRPRPEGCPRP | 0.863
48 | RRIRMRPPRLPRPRPRPFSWPRP | 0.0956
49 | RRIRMRPPRLPRPRPRPGYYPRP | -0.0156
50 | RRIRDRPPRLPRPRPRPWHMPRP | -0.301

Row | Sequence | shrunken log2 fold change
51 | RRIRLRPPRLPRPRPRPGFDPRP | 0.137
52 | RRIRERPPRLPRPRPRPLYEPRP | -1.24
53 | RRIRCRPPRLPRPRPRPPAIPRP | 0.532
54 | RRIRDRPPRLPRPRPRPKHQPRP | 0.0157
55 | RRIRKRPPRLPRPRPRPPGEPRP | 0.617
56 | RRIRPRPPRLPRPRPRPKIIPRP | -0.0308
57 | RRIRARPPRLPRPRPRPKSKPRP | 0.257
58 | RRIRYRPPRLPRPRPRPLKMPRP | -0.26
59 | RRIRDRPPRLPRPRPRPVAYPRP | -0.0825
60 | RRIRARPPRLPRPRPRPATAPRP | 0.452
61 | RRIRFRPPRLPRPRPRPHIIPRP | -0.879
62 | RRIRERPPRLPRPRPRPCVHPRP | -0.0795
63 | RRIRFRPPRLPRPRPRPIATPRP | -0.0109
64 | RRIRERPPRLPRPRPRPCNLPRP | -0.904
65 | RRIRPRPPRLPRPRPRPDNVPRP | 0.115
66 | RRIRGRPPRLPRPRPRPIYHPRP | -0.1
67 | RRIRDRPPRLPRPRPRPESAPRP | 0.345
68 | RRIRIRPPRLPRPRPRPPCSPRP | -0.339
69 | RRIRLRPPRLPRPRPRPELVPRP | 0.113
70 | RRIRIRPPRLPRPRPRPLFAPRP | -0.0892
71 | RRIRKRPPRLPRPRPRPRIVPRP | 0.161
72 | RRIRKRPPRLPRPRPRPCVLPRP | 0.0725
73 | RRIRARPPRLPRPRPRPTVGPRP | 0.794
74 | RRIRKRPPRLPRPRPRPSGCPRP | -0.00526
75 | RRIRNRPPRLPRPRPRPKHEPRP | 0.13

Row | Sequence | shrunken log2 fold change
76 | RRIRTRPPRLPRPRPRPHIMPRP | -0.738
77 | RRIRARPPRLPRPRPRPDDDPRP | 0.257
78 | RRIRWRPPRLPRPRPRPQKLPRP | 0.0774
79 | RRIRFRPPRLPRPRPRPKHMPRP | -0.52
80 | RRIRKRPPRLPRPRPRPDQRPRP | 0.458
81 | RRIRYRPPRLPRPRPRPGDEPRP | -0.0823
82 | RRIRTRPPRLPRPRPRPWIGPRP | -0.233
83 | RRIRWRPPRLPRPRPRPLELPRP | 0.106
84 | RRIRKRPPRLPRPRPRPMHEPRP | 0.191
85 | RRIRKRPPRLPRPRPRPMTRPRP | 0.872
86 | RRIRFRPPRLPRPRPRPWDRPRP | -0.167
87 | RRIRQRPPRLPRPRPRPWEFPRP | -0.123
88 | RRIRSRPPRLPRPRPRPSFIPRP | -0.661
89 | RRIRLRPPRLPRPRPRPQWMPRP | -0.0896
90 | RRIRKRPPRLPRPRPRPTANPRP | 0.863
91 | RRIRGRPPRLPRPRPRPRYDPRP | -0.057
92 | RRIRARPPRLPRPRPRPTFYPRP | -0.00745
93 | RRIRERPPRLPRPRPRPTSIPRP | -0.19
94 | RRIRLRPPRLPRPRPRPLCCPRP | -0.146
95 | RRIRARPPRLPRPRPRPEWEPRP | 0.877
96 | RRIRDRPPRLPRPRPRPACDPRP | 0.472
97 | RRIRDRPPRLPRPRPRPNGCPRP | -0.00152
98 | RRIRVRPPRLPRPRPRPAYKPRP | -0.181
99 | RRIRTRPPRLPRPRPRPNQMPRP | -0.334
100 | RRIRKRPPRLPRPRPRPRDYPRP | 0.0161

Row | Sequence | shrunken log2 fold change
101 | RRIRLRPPRLPRPRPRPQLPPRP | 0.178
102 | RRIRVRPPRLPRPRPRPAEYPRP | -0.124
103 | RRIRPRPPRLPRPRPRPKLCPRP | -0.0437
104 | RRIRARPPRLPRPRPRPQDGPRP | 0.214
105 | RRIRIRPPRLPRPRPRPDLAPRP | -0.169
106 | RRIRIRPPRLPRPRPRPDMSPRP | -0.00804
107 | RRIRFRPPRLPRPRPRPWVRPRP | 0.0245
108 | RRIRIRPPRLPRPRPRPQACPRP | 0.126
109 | RRIRNRPPRLPRPRPRPVGPPRP | 0.448
110 | RRIRWRPPRLPRPRPRPPYHPRP | -0.106
111 | RRIRWRPPRLPRPRPRPIGCPRP | 0.268
112 | RRIRERPPRLPRPRPRPVNRPRP | -0.294
113 | RRIRMRPPRLPRPRPRPDHSPRP | 0.318
114 | RRIRNRPPRLPRPRPRPYHIPRP | -0.366
115 | RRIRDRPPRLPRPRPRPIKWPRP | -0.147
116 | RRIRRRPPRLPRPRPRPQKSPRP | -0.106
117 | RRIRLRPPRLPRPRPRPQQMPRP | -0.29
118 | RRIRQRPPRLPRPRPRPWKDPRP | -0.0211
119 | RRIRKRPPRLPRPRPRPYSAPRP | -0.134
120 | RRIRERPPRLPRPRPRPMYQPRP | -0.0801
121 | RRIRERPPRLPRPRPRPIDDPRP | 0.0583
122 | RRIRIRPPRLPRPRPRPYFVPRP | -0.612
123 | RRIRYRPPRLPRPRPRPKAAPRP | 0.067
124 | RRIRTRPPRLPRPRPRPQSRPRP | -0.0689
125 | RRIRMRPPRLPRPRPRPSINPRP | 0.0424
